Where “and” joins values, the source holds several entries; their conditions need not be identical. Equal values may be shown once.
What was measured:
human interleukin-4 [1] = biological target: T1, human interleukin-4 (human, UniProt P05112, radioiodinated (125I, IODOGEN method) in the binding and competition assays; unlabelled in the reporter gene assay)
human interleukin-4 [2] = biological target: T1, human interleukin-4; assay: plate competition assay at room temperature (about 22 C); free antibody against immobilized 25D2 as competitor for 125I-hIL-4
Procedure: (§1) Immunosorb plates were coated with a 60 ng/ml solution of the rat 25D2 antibody diluted in PBS (100 μl/well) for at least 16 hours at 4° C. The wells were then blocked with Blocking buffer (3% BSA in PBS) for 4 hours at room temperature. Fifty microliters of 2-fold serially diluted competing antibodies plus the appropriate amount of ^125I-hIL-4 ([…] total volume) were added to each well, and the plates were incubated at room temperature for 16–24 hours. The plates were washed 3 times with potassium phosphate, pH 7.4, plus 0.05% Tween 20. The wells were aspirated dry, and 75 μl of Solubilization buffer (0.1N NaOH/1% SDS) was added to each well and incubated for 30 minutes at room temperature. The solution was removed from each well and counted in an LKB gamma counter.
A plate competition assay was carried out as described above using ^125I-hIL-4, immobilized rat antibody 25D2, and varying levels of free antibodies 25D2, h25D2-1 or h25D2-9.

human interleukin-4 [3] = biological target: T1, human interleukin-4; remark: listed apart in the source
human interleukin-4 [4] = biological target: T1, human interleukin-4; assay: apparent Kd, Scatchard analysis; antibody from COS conditioned medium captured on anti-human IgG4 Fc plates, 125I-hIL-4, room temperature
Procedure: The wells were washed and incubated with ^125I-hIL-4 at concentrations between 4,000 and 2 pM in final volumes of 100 μl. All assays were performed in triplicate, and the background binding was determined by using a 1000-fold molar excess of unlabelled hIL4 in control wells. After incubation for 2 hours at room temperature, the wells were washed, the protein was solubilized in 75 μl of Solubilization buffer [0.1N NaOH/1% sodium dodecylsulfate (SDS)], and the solution was counted in an LKB gamma counter. Concentrations of bound and free hIL4 were determined, and the affinities of the antibodies were determined by Scatchard plot analysis [Berzofsky et al., in *Fundamental Immunology*, 1984, Paul, E. E., Ed., Raven Press, N.Y., N.Y., pp. 595–644].
All five variants of the humanized heavy chain gene were independently co-transfected into COS 7 cells with the pKM20 light chain vector. The serum-free conditioned medium was harvested after 72 hours and concentrated.

human interleukin-4 [5] = biological target: T1, human interleukin-4; assay: inhibition of 125I-hIL-4 binding to the human IL-4 receptor on Jijoye CJ cells, 4 C
Procedure: The humanized antibodies were assayed for the ability to inhibit the binding of radiolabelled hIL-4 to the recombinant human IL-4 receptor expressed on Jijoye CJ cells in microtiter plates. Briefly, the humanized antibodies were serially diluted in cell growth medium at protein concentrations of from 8.6 nM to 4 pM. Rat antibody 25D2 was similarly diluted and used as a positive control. Jijoye CJ cells (10^5 cells) and 44 pM ^125I-hIL-4 were then added to each well (200 μl final volume per well) and the plates were incubated for 2 hours at 4° C.
Humanized antibodies h25D2-1 and h25D2-4 antibodies were assayed as described above for the ability to inhibit binding of radiolabeled hIL-4 to recombinant hIL-4 receptors expressed on the Jijoye CJ cell line.

human interleukin-4 [6] = biological target: T1, human interleukin-4; assay: plate competition assay at room temperature; free antibody against immobilized 25D2 as competitor for 125I-hIL-4
Procedure: as §1
To further characterize humanized antibody variants h25D2-1 and h25D2-4, competitive binding assays with the humanized antibodies and rat antibody 25D2 were performed as described above.

human interleukin-4 [7] = biological target: T1, human interleukin-4; assay: apparent Kd, Scatchard analysis; purified antibody captured on anti-rat IgG Fc plates, 125I-hIL-4, room temperature

| Binder | concentration for fifty percent inhibition in the germline epsilon reporter assay, Jijoye C12 cells (FIG. 3), against 25D2 and h25D2-9 (human interleukin-4 [1]) [fold] | concentration for fifty percent inhibition relative to antibody h25D2-9 (human interleukin-4 [2]) [fold] | IC50, inhibition of human growth hormone expression under the germline epsilon promoter in Jijoye C12 cells with 1 ng/mL hIL-4 (human interleukin-4 [3]) [nM] | Kd (human interleukin-4 [4]) [nM] | IC50 (human interleukin-4 [5]) | fold less effective than antibody 25D2 in competition (human interleukin-4 [6]) [fold] | Kd (human interleukin-4 [7]) [nM] |
| --- | --- | --- | --- | --- | --- | --- | --- |
| humanized antibody h25D2-1 (antibody, V domains shown) VH: EVQLLESGGGLVQPGGSLRLSCAASGFSFRSYWMTWVRQAPGKGLEWVASISISGDNTYYPDSVRGRFTISRNDSKNTLYLQMNGLQAEVSAIYYCARDPYYFSGHYFDFWGQGTLVTVSS VL: DIQMTQSPSSLSVSVGDRVTITCKASQNIYKNLAWYQQKPGLAPKLLIYNAKSLETGVPSRFSGSGSGTDFTFTISSLQPEDIATYYCQQYYSGWTFGQGTKVEVKR | 5 | 2 | 0.12 | 4 | 0.5 nM and 1 nM | 3 | – |
| rat monoclonal antibody 25D2 (antibody, V domains shown) VH: ELQLVESGGGLVQPGRSLKLSCVASGFSFRSYWMTWVRQAPGKGLEWIASISISGDNTYYPDSVRGRFTISRDDAKSILYLQMNSLRSEDTATYYCVRDPYYFSGHYFDFWGQGVMVTVSS VL: DIQMTQSPSLLSASVGDRVTLNCKASQNIYKNLAWYQQKLGEAPKFLIFNAKSLETGVPSRFSGSGSGTDFTLTISSLQPEDVATYFCQQYYSGWTFGGGTKLELKR | – | – | 0.02 to 0.04 | – | 0.5 to 1 nM and 1 nM | – | 1 |

Reference: patent US5705154, “Humanized monoclonal antibodies against human interleukin-4” (Schering Corporation, dated 1998)
